Entries after “also recorded” stand apart in the source; their conditions may differ.
Legend:
Assay type in all cases: biochemical
bovine chymotrypsin = bovine chymotrypsin (Bos taurus, UniProt P00766); test: Chymotrypsin assay (spectrophotometric, p-nitroanilide substrate); conditions: for Inhibitory Activity Chymotrypsin: inhibitor/protease ratio between about 10/1 and 50/1; for inhibition of chymotrypsin (in words): text discussion of Table III
Experimental: (§1) The inhibitory activity of the polypeptides of the present invention can be easily assayed using in vitro assays. In these types of spectrophotometric assays the activity of the serine protease is measured toward an appropriate p-nitroanilide substrate in the presence and absence of the peptide inhibitor. The enzyme catalyzed hydrolysis of the peptide p-nitroanilide substrate produces p-nitroanaline which results in an increase in absorbance which is monitored in the range of 405 to 410 nm. The rate of increase in absorbance is a measure of the enzymatic activity and the decrease in this rate relative to a suitable control is used to ascertain inhibition. The general assay procedure and details of the particular assays employed in the examples are provided in the Appendix following the examples. It is also possible to test the polypeptides in a functionally oriented assay that emulates in vivo conditions. Such an inhibition assay for elastase is also described in the Appendix.
(§2) Generalized Protocol Spectrophotometric Assays:
(§3) (1) Pipette 100 μl of enzyme solution into a disposable polystyrene cuvette (1 cm optical path length).
(§4) (2) Add (1900-X) μl of bufferto the cuvette, where X is the volume of test solution in microliters that is added in the next step.
(§5) Add X μl of test solution to the cuvette, where X ranges from 0 μl for the control to a maximum of about 500 μl. Incubate the solution for a period of 1 to 5 minutes at ambient temperature.
(§6) (4) Add 100 μl of substrate solution to the cuvette. Mix the contents by covering the cuvette with a piece of paraffin film and repeatedly inverting for a period of 5 to 15 seconds.
(§7) (5) Record the change in absorbance for about 5 minutes at either 405 or 410 nm, depending on the assay, with a spectrophotometer equipped with a suitable recording device.
(§8) The percent inhibition is calculated from the formula [formula] where (ΔA/min) is the initial rate of absorbance change.
(§9) (7) For more accurate quantitative determinations temperature control of the cuvette holders and the reagent solutions can be instituted.
(§10) (8) The test solution can be crude oxidized peptide prepared as described above, fractions from a chromatographic separation or purified polypeptides.
(A) Buffer solution - triethanolamine buffer- See trypsin assay.
(B) Substrate Solution - Dissolve 25 mg of 3-carbomethoxypropionyl-L-arginyl-L-prolyl-L-tyrosine p-nitroanilide (Product No. S-2586, KabiVitrum AB, Stockholm, Sweden) in 23.6 ml of water
(C) Enzyme solution - Dissolve 1 mg of bovine chymotrypsin in 4 ml of 0.001N HCl. Prepare the final dilution by combining 0.1 ml of the stock chymotrypsin solution and 10 ml of 0.001N HCl. Store on ice or at 4° C.
Procedure: Use the above solutions in the general protocol
(2) See note 1 of the cathepsin G assay.
(3) 0.1M Tris-HCl, pH 7.8, 20 mM CaCl2, 0.05% triton X-100 can be substituted for the triethanolamine buffer.

Human Sputum Elastase = target: T1, Human Sputum Elastase (Homo sapiens, UniProt P08246); test: Elastase assay (spectrophotometric, p-nitroanilide substrate); conditions: for Inhibitory Activity Elastase: inhibitor/protease ratio between about 10/1 and 50/1; for inhibition of human elastase (in words): text discussion of Table III
T1 construct: Human Sputum Elastase, product No. SE-563 EPC, Inc., Pacific, Mo; USA, Lot 85701; purchased EPC, Inc., Pacific, Mo; USA SE-563; host or cells: human sputum
T1 sequence (P08246 30-267): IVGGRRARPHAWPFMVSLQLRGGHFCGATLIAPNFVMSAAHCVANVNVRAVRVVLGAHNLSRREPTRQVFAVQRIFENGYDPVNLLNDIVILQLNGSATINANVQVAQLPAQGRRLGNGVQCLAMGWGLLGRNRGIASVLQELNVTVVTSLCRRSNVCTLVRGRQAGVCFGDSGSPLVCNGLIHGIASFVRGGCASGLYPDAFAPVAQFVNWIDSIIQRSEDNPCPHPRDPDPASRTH
Experimental: as §1, §2, §3, §4, §5, §6, §7, §8, §9, §10
(A) Buffer Solution - Tris-NaCl buffer consisting of 0.1M Tris-HCl pH 7.5 at 25° C. containing 0.5M NaCl and 0.01% (w/v) NaNs.
(B) Substrate Solution - Dissolve 45.5 mg of N-succinyl-L-alanyl-L-alanyl-L-alanine p-nitroanilide in 1 ml of 1-methyl-2-pyrrolidinone. Add 32 ml of Tris-NaCl buffer.
(C) Enzyme Solution - Human Sputum Elastase, product No. SE-563 EPC, Inc., Pacific, Mo. USA, Lot 85701. Dissolve 1 mg in 1 ml of Tris-NaCl buffer. Store on ice or at 4° C.
(§11) (D) Test Solution - See general protocol, number 8.
(§12) Procedure: Use the above solutions in the general protocol described above.
(1) Buffer Solution - Tris-NaCl buffer -see Method 1.
(2) Substrate Solution - Dissolve 50 mg of 3-carbomethoxypropionyl-L-alanyl-L-alanyl-L-[…]-L-valine p-nitroanilidein 1 ml of 1-methyl-2-pyrrolidinone. Add 32 ml of Tris-NaCl buffer.
(3) Enzyme Solution - Human sputum elastase, product No. SE-563, EPC, inc. Pacific, Mo. USA, Lot 85071. Prepare a sample at a concentration of 0.01 mg per ml of Tris-NaCl buffer. Store on ice.
(4) Test Solution - general protocol, number 8.
Procedure: Use the above solutions in the general protocol.
(1) Porcine pancreatic elastase may be substituted for human elastase when it is desired to test for an inhibitor of the former.
(2) The activity of an elastase preparation can be calculated as [formula]
(3) The Tris-NaCl buffer also can be pH 8.0 with 0.03% sodium azide. Results should be compared at a single pH.

bovine trypsin = target: T2, bovine trypsin (Bos taurus, UniProt P00760); test: Trypsin assay (spectrophotometric, N-Benzoyl-L-arginine p-nitroanilide substrate); conditions: for Inhibitory Activity Trypsin: inhibitor/protease ratio between about 10/1 and 50/1; for inhibition of trypsin (in words): text discussion of Table III
T2 sequence (P00760 24-246): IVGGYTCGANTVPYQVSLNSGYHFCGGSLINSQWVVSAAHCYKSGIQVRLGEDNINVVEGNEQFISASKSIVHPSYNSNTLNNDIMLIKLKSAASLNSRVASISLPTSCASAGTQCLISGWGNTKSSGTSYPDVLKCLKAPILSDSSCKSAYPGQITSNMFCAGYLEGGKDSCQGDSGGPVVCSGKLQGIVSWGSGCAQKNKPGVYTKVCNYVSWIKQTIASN
Experimental: as §1, §2, §3, §4, §5, §6, §7, §8, §9, §10
(A) Buffer Solution - Triethanolamine buffer consisting of 200 mM triethanolamine, 20 mM CaCl2, pH 7.8
(B) Substrate solution - Dissolve 50 mg of N-Benzoyl-L-arginine p-nitroanilide in 50 ml of water. Sonicate for 5 to 10 minutes to completely dissolve the solid material.
(C) Enzyme solution - Dissolve 1 mg of bovine trypsin in 10 ml of 0.001N HCl stored on ice during the assay.
as §11, §12

Human Sputum Cathepsin G = target: T3, Human Sputum Cathepsin G (Homo sapiens, UniProt P08311); test: Cathepsin G assay (spectrophotometric, p-nitroanilide substrate); conditions: for Inhibitory Activity Cathepsin G: inhibitor/protease ratio between about 10/1 and 50/1; for inhibition of cathepsin G (in words): text discussion of Table III
T3 construct: Human Sputum Cathepsin G (Product No. SG-45, EPC, Inc., Pacific, Mo.); purchased EPC, Inc., Pacific, Mo; SG-45; host or cells: human sputum
T3 sequence (P08311 21-255): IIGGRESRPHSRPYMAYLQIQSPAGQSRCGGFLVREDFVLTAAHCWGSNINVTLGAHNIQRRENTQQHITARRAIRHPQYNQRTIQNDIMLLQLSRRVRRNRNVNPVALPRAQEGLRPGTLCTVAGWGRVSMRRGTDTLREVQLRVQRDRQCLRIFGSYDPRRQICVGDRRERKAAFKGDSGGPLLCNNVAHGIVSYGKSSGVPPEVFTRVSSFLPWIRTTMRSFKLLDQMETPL
Experimental: as §1, §2, §3, §4, §5, §6, §7, §8, §9, §10
(A) Buffer Solution - Tris-NaCl buffer consisting of 0.1M Tris-HCl, pH 8.0 containing 0.5M NaCl and 0.03% sodium azide.
(B) Substrate solution - Dissolve 50 mg of N-succinyl-L-alanyl-L-alanyl-L-prolyl-L-phenylalanine p-nitroanilide in 1 ml of 1-methyl-2-pyrrolidinone and dilute to 50 ml with Tris-NaCl buffer.
(C) Enzyme Solution - Human Sputum Cathepsin G (Product No. SG-45, EPC, Inc., Pacific, Mo.). Dissolve 1 mg of protein per 1 ml of Tris-NaCl buffer. Store on ice or at 4° C.
(D) Test Solutions - See the general protocol, number 8.
Procedure: Use the above solution in the general protocol described above. […]

RVCGVILMKCKKDSDCLAECVCLEHGYCG (RVCGVILMKCKKDSDCLAECVCLEHGYCG) [Peptide 46]
Inhibitory Activity Chymotrypsin (bovine chymotrypsin): - (Represents less than 10% inhibition) | Inhibitory Activity Elastase (Human Sputum Elastase): ++ (Represents greater than 50% inhibition) | inhibition of human elastase (in words) (Human Sputum Elastase): continue to be inhibitors of human elastase | Inhibitory Activity Trypsin (bovine trypsin): - (Represents less than 10% inhibition) | Inhibitory Activity Cathepsin G (Human Sputum Cathepsin G): - (Represents less than 10% inhibition)

R V C Hyp VILMKCKKDSDCLAECVCLEHGYCG [Peptide 47]
Inhibitory Activity Chymotrypsin (bovine chymotrypsin): - (Represents less than 10% inhibition) | Inhibitory Activity Elastase (Human Sputum Elastase): ++ (Represents greater than 50% inhibition) | inhibition of human elastase (in words) (Human Sputum Elastase): continue to be inhibitors of human elastase | Inhibitory Activity Trypsin (bovine trypsin): - (Represents less than 10% inhibition) | Inhibitory Activity Cathepsin G (Human Sputum Cathepsin G): - (Represents less than 10% inhibition)

RVCPAILMKCKKDSDCLAECVCLEHGYCG (RVCPAILMKCKKDSDCLAECVCLEHGYCG) [Peptide 36]
Inhibitory Activity Chymotrypsin (bovine chymotrypsin): ++ (Represents greater than 50% inhibition) | Inhibitory Activity Elastase (Human Sputum Elastase): ++ (Represents greater than 50% inhibition) | inhibition of human elastase (in words) (Human Sputum Elastase): continue to be inhibitors of human elastase | Inhibitory Activity Trypsin (bovine trypsin): + (Represents between 10% and 50% inhibition) | Inhibitory Activity Cathepsin G (Human Sputum Cathepsin G): + (Represents between 10% and 50% inhibition)

RVCPFILMKCKKDSDCLAECVCLEHGYCG (RVCPFILMKCKKDSDCLAECVCLEHGYCG) [Peptide 15]
Inhibitory Activity Chymotrypsin (bovine chymotrypsin): ++ (Represents greater than 50% inhibition) | inhibition of chymotrypsin (in words) (bovine chymotrypsin): Inhibition of chymotrypsin and cathepsin G was observed | Inhibitory Activity Elastase (Human Sputum Elastase): ++ (Represents greater than 50% inhibition) | inhibition of human elastase (in words) (Human Sputum Elastase): inhibited | Inhibitory Activity Trypsin (bovine trypsin): ++ (Represents greater than 50% inhibition) | inhibition of trypsin (in words) (bovine trypsin): inhibited | Inhibitory Activity Cathepsin G (Human Sputum Cathepsin G): ++ (Represents greater than 50% inhibition) | inhibition of cathepsin G (in words) (Human Sputum Cathepsin G): Inhibition of chymotrypsin and cathepsin G was observed

RVCPGILMKCKKDSDCLAECVCLEHGYCG (RVCPGILMKCKKDSDCLAECVCLEHGYCG) [Peptide 51]
Inhibitory Activity Chymotrypsin (bovine chymotrypsin): - (Represents less than 10% inhibition) | Inhibitory Activity Elastase (Human Sputum Elastase): ++ (Represents greater than 50% inhibition) | inhibition of human elastase (in words) (Human Sputum Elastase): is a human elastase inhibitor; also recorded: less effective inhibitor of elastase than peptides 1 or 8 | Inhibitory Activity Trypsin (bovine trypsin): - (Represents less than 10% inhibition) | Inhibitory Activity Cathepsin G (Human Sputum Cathepsin G): - (Represents less than 10% inhibition)

RVCPIILMKCKKDSDCLAECVCLEHGYCG (RVCPIILMKCKKDSDCLAECVCLEHGYCG) [Peptide 1]
Inhibitory Activity Chymotrypsin (bovine chymotrypsin): - (Represents less than 10% inhibition) | Inhibitory Activity Elastase (Human Sputum Elastase): ++ (Represents greater than 50% inhibition) | Inhibitory Activity Trypsin (bovine trypsin): - (Represents less than 10% inhibition) | Inhibitory Activity Cathepsin G (Human Sputum Cathepsin G): - (Represents less than 10% inhibition)

RVCPLILMKCKKDSDCLAECVCLEHGYCG (RVCPLILMKCKKDSDCLAECVCLEHGYCG) [Peptide 29]
Inhibitory Activity Chymotrypsin (bovine chymotrypsin): ++ (Represents greater than 50% inhibition) | Inhibitory Activity Elastase (Human Sputum Elastase): ++ (Represents greater than 50% inhibition) | inhibition of human elastase (in words) (Human Sputum Elastase): continue to be inhibitors of human elastase | Inhibitory Activity Trypsin (bovine trypsin): ++ (Represents greater than 50% inhibition) | Inhibitory Activity Cathepsin G (Human Sputum Cathepsin G): + (Represents between 10% and 50% inhibition)

RVCPMILMKCKKDSDCLAECVCLEHGYCG (RVCPMILMKCKKDSDCLAECVCLEHGYCG) [Peptide 22]
Inhibitory Activity Chymotrypsin (bovine chymotrypsin): ++ (Represents greater than 50% inhibition) | inhibition of chymotrypsin (in words) (bovine chymotrypsin): inhibits | Inhibitory Activity Elastase (Human Sputum Elastase): ++ (Represents greater than 50% inhibition) | inhibition of human elastase (in words) (Human Sputum Elastase): inhibits | Inhibitory Activity Trypsin (bovine trypsin): ++ (Represents greater than 50% inhibition) | inhibition of trypsin (in words) (bovine trypsin): inhibits | Inhibitory Activity Cathepsin G (Human Sputum Cathepsin G): + (Represents between 10% and 50% inhibition) | inhibition of cathepsin G (in words) (Human Sputum Cathepsin G): inhibits

RVCPRILMKCKKDSDCLAECVCLEHGYC (RVCPRILMKCKKDSDCLAECVCLEHGYC) [Control, comparative control, reference compound]
Inhibitory Activity Chymotrypsin (bovine chymotrypsin): - (Represents less than 10% inhibition) | Inhibitory Activity Elastase (Human Sputum Elastase): - (Represents less than 10% inhibition) | Inhibitory Activity Trypsin (bovine trypsin): ++ (Represents greater than 50% inhibition) | Inhibitory Activity Cathepsin G (Human Sputum Cathepsin G): - (Represents less than 10% inhibition)
